Data reported in article PMC10589721 (Proceedings of the National Academy of Sciences of the …, 2023).
Like-named read-outs stand apart in the source and are kept apart here. No end group written: not given here. *: point of attachment. Biotin = O=C1N[C@H]2[C@H](CS[C@H]2CCCCC(=O)*)N1; Ahx = NCCCCCC(=O)O

How the values were obtained:
[1] = biological target: T1, full-length human OGT (Homo sapiens, UniProt O15294); assay: OGT inhibition assay; format: biochemical
T1 sequence (O15294 1-1046): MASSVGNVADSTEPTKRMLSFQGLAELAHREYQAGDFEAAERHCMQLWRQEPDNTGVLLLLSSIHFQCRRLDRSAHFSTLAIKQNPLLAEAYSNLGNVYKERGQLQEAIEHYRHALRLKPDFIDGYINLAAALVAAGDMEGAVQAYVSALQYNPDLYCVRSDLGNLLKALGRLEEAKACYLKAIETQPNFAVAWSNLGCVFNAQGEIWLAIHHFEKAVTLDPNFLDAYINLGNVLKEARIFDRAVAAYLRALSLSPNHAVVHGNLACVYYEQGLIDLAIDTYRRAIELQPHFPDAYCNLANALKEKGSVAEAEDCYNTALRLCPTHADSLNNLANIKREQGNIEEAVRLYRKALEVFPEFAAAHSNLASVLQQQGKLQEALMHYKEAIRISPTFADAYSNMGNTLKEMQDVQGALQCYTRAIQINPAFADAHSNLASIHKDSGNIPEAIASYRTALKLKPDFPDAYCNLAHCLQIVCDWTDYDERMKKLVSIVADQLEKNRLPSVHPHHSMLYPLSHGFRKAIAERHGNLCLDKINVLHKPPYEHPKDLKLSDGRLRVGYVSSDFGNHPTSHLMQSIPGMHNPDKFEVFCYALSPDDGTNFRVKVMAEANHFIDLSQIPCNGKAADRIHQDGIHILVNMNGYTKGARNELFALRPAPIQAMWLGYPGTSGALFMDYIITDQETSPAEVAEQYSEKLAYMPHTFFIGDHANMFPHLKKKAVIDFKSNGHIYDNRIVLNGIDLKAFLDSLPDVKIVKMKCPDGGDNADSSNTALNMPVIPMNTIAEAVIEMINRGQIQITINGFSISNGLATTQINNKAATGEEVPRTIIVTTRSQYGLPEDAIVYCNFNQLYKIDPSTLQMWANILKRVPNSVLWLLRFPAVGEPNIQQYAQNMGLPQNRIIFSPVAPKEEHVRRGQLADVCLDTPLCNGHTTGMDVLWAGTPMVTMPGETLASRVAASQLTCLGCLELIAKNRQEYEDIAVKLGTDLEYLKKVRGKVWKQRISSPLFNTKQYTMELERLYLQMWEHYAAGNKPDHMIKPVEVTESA

[2] = biological target: T2, OGT4.5 (crystallizable construct of O-GlcNAc transferase: catalytic region appended to 4.5 TPRs) (human, UniProt O15294 323-1041); assay: crystal structure
T2 sequence: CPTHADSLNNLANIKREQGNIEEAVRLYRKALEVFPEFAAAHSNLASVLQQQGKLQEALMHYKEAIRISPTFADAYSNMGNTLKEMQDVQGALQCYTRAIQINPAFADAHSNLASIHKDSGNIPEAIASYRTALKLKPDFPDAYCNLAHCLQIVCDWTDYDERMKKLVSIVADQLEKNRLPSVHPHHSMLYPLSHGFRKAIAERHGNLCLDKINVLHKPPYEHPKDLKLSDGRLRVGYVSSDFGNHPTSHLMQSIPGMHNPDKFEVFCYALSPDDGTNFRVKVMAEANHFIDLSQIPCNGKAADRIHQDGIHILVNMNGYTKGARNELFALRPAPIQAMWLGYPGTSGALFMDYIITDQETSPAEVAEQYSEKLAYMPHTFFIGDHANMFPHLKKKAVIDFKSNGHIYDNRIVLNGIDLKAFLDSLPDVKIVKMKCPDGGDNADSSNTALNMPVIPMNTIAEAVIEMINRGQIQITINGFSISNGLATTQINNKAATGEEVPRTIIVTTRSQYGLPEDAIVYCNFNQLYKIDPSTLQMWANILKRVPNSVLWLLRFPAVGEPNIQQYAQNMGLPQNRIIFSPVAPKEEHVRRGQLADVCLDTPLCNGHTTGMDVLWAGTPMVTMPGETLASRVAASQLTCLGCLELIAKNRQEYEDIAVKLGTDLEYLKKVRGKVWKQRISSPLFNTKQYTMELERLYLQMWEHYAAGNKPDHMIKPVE

[3] = biological target: T3, O-GlcNAc transferase (OGT), as used in the fluorescence activity assay (human, UniProt O15294 1-1046); assay: enzyme inhibition kinetics
T3 sequence (looked up): T1 sequence (O15294 1-1046)

[4] = biological target: T3, O-GlcNAc transferase (OGT), as used in …; assay: enzyme inhibition kinetics; remark: listed apart in the source
[5] = biological target: T3, O-GlcNAc transferase (OGT), as used in …; assay: enzyme inhibition kinetics; remark: listed apart in the source
[6] = biological target: T2, OGT4.5 (crystallizable construct of …); assay: BLI

In the case of DDSDLYSPRYSFSED [repeat 2 of SORB1], the “inhibition of OGT (in words)” value [1] is reported as “none of these four peptides inhibited OGT”.

With PEENPYFPTYKFPEL [repeat 1 of SORB1] the “inhibition of OGT (in words)” value [1] was “none of these four peptides inhibited OGT”.

PTSKAYSPRYSISDR [SOS1] was tested, and the “inhibition of OGT (in words)” value [1] was “none of these four peptides inhibited OGT”.

With RGLGEFTPLYPMLFG [SCLY] the “inhibition of OGT (in words)” value [1] was “none of these four peptides inhibited OGT”.

FMPKYSI [truncated P11 peptide (tP11)]: binds [2].

With GDFPVMFMPKYSIIF [peptide P11] the Ki [3] was 4 ± 0.9 mM, the Ki [4] was 2700 ± 300 nM and the Ki [5] was 3.8 ± 0.4 µM.

{Biotin-Ahx}-GDFPVMFMPKYSIIF [biotinylated peptide P11 (Biotin-Ahx-GDFPVMFMPKYSIIF)] gave a Kd [6] of 470 ± 160 nM.
